Laboratory results taken from the supplement of paper PMC6379048.

Key:
Test in all cases: EC50 of free RNA motif oligo competing protein binding to immobilised probe
PABPC1 = PABPC1 (UniProt P11940)
Procedure, shortened: (§1)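 HEK293-FT lysate (2.5 mg protein/well) was treated with free RNA oligos (0 nM to 30 μM) for 1 h at 4°C, then with the same oligos on NHS-Sepharose beads for 30 min at 4°C. Bound proteins were quantified by label-free LC-MS/MS relative to the control. EC50 came from a four-parameter log-logistic fit, and Kd is EC50 times a protein-dependent depletion factor.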

CPSF1 = target: T1, CPSF1 (UniProt Q10570)
T1 sequence: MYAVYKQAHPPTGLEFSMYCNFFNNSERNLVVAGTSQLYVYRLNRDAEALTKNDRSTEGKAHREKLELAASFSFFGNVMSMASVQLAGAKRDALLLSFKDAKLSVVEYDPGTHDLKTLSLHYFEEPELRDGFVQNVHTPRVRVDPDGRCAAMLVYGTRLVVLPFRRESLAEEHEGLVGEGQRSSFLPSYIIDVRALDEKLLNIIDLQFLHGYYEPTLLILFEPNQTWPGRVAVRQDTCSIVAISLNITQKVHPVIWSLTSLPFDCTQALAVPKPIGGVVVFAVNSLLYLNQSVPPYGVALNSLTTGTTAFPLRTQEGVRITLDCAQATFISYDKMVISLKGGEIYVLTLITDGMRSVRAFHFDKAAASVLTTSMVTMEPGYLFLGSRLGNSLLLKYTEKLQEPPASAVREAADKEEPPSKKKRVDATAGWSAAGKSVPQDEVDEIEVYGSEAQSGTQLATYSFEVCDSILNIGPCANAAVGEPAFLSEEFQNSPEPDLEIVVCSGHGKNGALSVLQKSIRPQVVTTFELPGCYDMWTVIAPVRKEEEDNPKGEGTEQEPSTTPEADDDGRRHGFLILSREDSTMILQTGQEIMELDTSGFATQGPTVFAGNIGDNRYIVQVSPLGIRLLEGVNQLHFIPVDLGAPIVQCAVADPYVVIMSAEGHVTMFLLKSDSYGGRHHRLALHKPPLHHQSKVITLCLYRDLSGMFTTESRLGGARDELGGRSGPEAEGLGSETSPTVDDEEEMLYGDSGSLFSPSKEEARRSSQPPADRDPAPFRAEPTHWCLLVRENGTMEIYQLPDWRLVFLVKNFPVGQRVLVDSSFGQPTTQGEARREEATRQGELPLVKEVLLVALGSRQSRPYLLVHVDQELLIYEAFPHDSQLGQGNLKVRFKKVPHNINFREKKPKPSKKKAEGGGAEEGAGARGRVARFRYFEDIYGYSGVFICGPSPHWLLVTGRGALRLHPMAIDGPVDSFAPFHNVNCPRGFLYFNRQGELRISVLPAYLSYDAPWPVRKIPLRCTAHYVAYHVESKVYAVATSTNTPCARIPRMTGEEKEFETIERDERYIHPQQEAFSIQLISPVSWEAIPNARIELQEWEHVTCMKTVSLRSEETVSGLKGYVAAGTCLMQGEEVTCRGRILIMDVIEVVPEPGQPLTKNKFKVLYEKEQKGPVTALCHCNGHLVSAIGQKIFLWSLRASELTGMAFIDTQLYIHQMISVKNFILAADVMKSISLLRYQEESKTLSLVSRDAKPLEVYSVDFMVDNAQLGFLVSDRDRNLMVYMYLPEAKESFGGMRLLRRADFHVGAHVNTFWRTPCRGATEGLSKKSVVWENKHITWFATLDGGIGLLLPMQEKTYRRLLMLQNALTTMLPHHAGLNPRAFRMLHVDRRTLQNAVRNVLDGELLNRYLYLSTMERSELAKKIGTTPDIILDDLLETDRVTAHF
Procedure, shortened: as §1

LSM2 = target: T2, LSM2 (UniProt Q9Y333)
T2 sequence: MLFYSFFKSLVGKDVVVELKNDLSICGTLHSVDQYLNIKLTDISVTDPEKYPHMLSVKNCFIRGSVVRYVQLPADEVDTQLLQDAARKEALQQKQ
Procedure, shortened: as §1

MSI2 = MSI2 (UniProt Q96DH6)
Chain of MSI2 (Q96DH6 whole entry): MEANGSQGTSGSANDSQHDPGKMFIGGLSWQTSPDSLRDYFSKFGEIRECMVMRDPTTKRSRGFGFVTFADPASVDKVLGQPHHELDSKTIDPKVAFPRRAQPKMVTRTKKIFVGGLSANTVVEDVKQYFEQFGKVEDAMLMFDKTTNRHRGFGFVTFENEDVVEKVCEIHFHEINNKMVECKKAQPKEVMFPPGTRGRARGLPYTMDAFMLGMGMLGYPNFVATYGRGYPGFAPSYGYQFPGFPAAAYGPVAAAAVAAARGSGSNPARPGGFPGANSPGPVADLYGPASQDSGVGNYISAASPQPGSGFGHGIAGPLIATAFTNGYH
Procedure, shortened: as §1

ZFP36L2 = target: T3, ZFP36L2 (UniProt P47974)
T3 sequence: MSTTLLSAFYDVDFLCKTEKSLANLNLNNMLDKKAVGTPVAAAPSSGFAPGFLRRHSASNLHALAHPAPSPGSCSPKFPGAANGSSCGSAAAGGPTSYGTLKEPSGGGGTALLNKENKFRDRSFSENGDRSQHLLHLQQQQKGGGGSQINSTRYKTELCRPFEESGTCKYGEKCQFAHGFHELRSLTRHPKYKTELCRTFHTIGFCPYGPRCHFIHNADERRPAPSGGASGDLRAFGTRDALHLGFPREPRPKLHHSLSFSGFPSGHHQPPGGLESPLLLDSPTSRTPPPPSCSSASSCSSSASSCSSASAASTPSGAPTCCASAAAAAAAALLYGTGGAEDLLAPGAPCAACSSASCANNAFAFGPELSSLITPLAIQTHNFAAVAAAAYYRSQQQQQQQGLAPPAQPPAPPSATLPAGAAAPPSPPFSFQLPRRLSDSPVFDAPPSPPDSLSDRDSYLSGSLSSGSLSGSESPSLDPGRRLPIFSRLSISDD
Procedure, shortened: as §1

Chain of PABPC1 (P11940 whole entry): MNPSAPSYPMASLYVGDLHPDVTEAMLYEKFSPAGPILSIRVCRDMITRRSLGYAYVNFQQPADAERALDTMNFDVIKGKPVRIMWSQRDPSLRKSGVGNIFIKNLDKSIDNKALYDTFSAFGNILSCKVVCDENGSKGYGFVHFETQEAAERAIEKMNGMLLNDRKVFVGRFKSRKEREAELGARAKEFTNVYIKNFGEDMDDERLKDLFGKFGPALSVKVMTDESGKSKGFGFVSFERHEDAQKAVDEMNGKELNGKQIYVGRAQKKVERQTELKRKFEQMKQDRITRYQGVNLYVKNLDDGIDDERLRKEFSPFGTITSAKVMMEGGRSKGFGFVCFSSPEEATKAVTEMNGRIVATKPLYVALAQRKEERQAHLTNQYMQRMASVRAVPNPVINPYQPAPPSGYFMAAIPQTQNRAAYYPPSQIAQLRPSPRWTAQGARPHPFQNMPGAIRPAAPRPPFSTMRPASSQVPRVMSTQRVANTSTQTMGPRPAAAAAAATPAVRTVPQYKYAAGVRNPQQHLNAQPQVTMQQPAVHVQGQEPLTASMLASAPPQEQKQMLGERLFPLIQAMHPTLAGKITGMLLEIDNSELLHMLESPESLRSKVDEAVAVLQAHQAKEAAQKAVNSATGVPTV

Sequence	EC50 (PABPC1)	EC50 (CPSF1)	EC50 (LSM2)	EC50 (MSI2)	EC50 (ZFP36L2)
CUGUCCU	199 nM	–	–	–	–
AAUAAA	10100 nM	64.4 nM	314 nM	826 nM	1830 nM
UAUUUAU	–	1710 nM	781 nM	803 nM	61.8 nM
